Data taken from article PMC5086056.

Target: AcGFP1-JAK3 (pAcGFP1-JAK3) (Bos taurus) (UniProt E1BEL4)
Test: co-IP; Matchmaker Co-IP system; ProLabel enzymatic activity (luminescence, ProLabel detection kit) in protein samples of HEK cells co-transfected with pAcGFP1-JAK3 and a pProLabel prey; read 25 min after addition of the substrate; against the negative control

UniProt E1BEL4, sequence (E1BEL4 entry or part of it): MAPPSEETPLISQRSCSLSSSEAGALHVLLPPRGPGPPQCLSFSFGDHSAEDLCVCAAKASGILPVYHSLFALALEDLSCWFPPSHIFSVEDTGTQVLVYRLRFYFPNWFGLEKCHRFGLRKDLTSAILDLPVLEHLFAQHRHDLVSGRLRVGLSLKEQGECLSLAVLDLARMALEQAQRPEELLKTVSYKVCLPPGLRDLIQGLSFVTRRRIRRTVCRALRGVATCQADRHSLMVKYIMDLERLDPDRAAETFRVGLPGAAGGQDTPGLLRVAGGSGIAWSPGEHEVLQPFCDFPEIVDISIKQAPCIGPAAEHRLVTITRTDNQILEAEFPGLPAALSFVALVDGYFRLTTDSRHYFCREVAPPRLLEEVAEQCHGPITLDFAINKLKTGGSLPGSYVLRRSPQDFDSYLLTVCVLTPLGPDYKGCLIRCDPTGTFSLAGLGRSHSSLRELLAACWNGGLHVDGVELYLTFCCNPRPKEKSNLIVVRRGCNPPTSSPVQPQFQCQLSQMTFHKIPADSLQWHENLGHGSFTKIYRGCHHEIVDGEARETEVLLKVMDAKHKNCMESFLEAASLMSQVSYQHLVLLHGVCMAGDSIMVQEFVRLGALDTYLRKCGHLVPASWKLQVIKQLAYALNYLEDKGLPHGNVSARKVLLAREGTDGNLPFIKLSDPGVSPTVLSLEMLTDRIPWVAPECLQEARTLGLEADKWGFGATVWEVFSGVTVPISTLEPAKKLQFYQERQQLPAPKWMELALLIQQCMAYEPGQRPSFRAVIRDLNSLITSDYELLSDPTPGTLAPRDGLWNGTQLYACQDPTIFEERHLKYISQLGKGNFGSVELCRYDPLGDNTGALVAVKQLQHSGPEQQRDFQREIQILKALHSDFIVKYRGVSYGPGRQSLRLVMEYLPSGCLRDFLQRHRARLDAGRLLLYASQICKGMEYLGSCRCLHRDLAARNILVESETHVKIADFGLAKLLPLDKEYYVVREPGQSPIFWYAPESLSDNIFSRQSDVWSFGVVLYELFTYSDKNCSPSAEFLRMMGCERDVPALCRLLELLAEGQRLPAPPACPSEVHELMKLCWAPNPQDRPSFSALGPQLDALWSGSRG

fold induction in ProLabel enzymatic activity as compared to the negative control	Substance
42 fold	ProLabel-LEPROTL1 (pProLabel-LEPROTL1) (from UniProt Q32PD8 1-131) (natural protein)
15 fold	ProLabel-CDKN1B (pProLabel-CDKN1B) (from UniProt A6QLS3 1-198) (natural protein)
34 fold	ProLabel-INHBA (pProLabel-INHBA) (from UniProt P07995 21-425) (natural protein)
